# Experimental data taken from patent US20250171549A1 (Amgen, published 2025).
# T1: murine CCR8 (murine, UniProt P56484 1-353)
# T1 construct: Transiently expressed on HEK293T; also called Mouse CCR8; mCCR8
# T1 sequence: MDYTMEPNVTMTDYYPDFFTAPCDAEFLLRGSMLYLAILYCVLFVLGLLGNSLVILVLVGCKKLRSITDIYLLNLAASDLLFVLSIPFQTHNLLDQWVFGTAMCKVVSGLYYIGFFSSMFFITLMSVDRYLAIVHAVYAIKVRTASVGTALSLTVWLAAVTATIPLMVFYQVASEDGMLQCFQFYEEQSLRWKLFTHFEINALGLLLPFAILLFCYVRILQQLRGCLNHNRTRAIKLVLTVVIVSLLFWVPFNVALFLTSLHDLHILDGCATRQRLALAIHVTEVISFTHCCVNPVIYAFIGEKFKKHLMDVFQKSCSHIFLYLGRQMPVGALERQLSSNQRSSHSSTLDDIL
# T2: rat CCR8 (rat, UniProt P56484 1-353 (mouse entry))
# T2 construct: Transiently expressed on HEK293T
# T2 chain: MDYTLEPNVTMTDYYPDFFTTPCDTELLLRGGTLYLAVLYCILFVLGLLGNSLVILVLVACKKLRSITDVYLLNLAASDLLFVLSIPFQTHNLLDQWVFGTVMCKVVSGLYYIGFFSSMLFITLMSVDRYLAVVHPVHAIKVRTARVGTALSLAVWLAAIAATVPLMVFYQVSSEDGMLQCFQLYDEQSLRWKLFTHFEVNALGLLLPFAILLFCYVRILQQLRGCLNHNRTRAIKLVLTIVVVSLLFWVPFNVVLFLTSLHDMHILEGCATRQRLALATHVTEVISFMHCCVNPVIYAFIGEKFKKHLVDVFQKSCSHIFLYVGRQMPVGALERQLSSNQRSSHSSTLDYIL
# B1: Antibody 2 IgG2 (antibody, V domains shown)
# VH: QVQLVESGGGVVQPGRSLRLSCAASGFTFSNYGMHWVRQAPGKGLEWVAVISYDGSNKFYADSVKGRFTISRDNSKKTLYLQMSSLRVEDTAVYYCARAGGIGRFDYWGQGTLVTVSS
# VL: DFVMTQTPLSLSVTPGQPASISCKYSQSLLHSDGKTYLFWYLQKPGQPPHLLIYEVSNRFSGVPDRFSGSGSGTDFTLKISRVEAEDVGLYYCMQTLKLPLTFGGGTKVEINR
# notes: IgG2; tested as hybridoma supernatant
# B2: Antibody 1 IgG2 (antibody)
# heavy: EVQLVESGGGLVKPGGSLRLSCAASGFTFSNARMGWVRQAPGKGLEWVGRIKSKTEGGTRDYAAPVKGRFTISRDDSKNTLYLQMNSLKTEDTAVYYCTSYSGVWGQGTMVTVSSASTKGPSVFPLAPCSRSTSESTAALGCLVKDYFPEPVTVSWNSGALTSGVHTFPAVLQSSGLYSLSSVVTVPSSNFGTQTYTCNVDHKPSNTKVDKTVERKCCVECPPCPAPPVAGPSVFLFPPKPKDTLMISRTPEVTCVVVDVSHEDPEVQFNWYVDGVEVHNAKTKPREEQFNSTFRVVSVLTVVHQDWLNGKEYKCKVSNKGLPAPIEKTISKTKGQPREPQVYTLPPSREEMTKNQVSLTCLVKGFYPSDIAVEWESNGQPENNYKTTPPMLDSDGSFFLYSKLTVDKSRWQQGNVFSCSVMHEALHNHYTQKSLSLSPGK
# light: not shown
# notes: as for B1
# Key:
# [1] = molecular target: T3, human CCR8 (human, UniProt P51685 1-355); assay: KinExA, HUT78 cells
# T3 construct: Transiently expressed on HEK 293T cells, or endogenous on HuT78/HUT78 cells and primary human regulatory T cells; also called hCCR8; human C-C chemokine receptor type 8
# Procedure: The cells were counted using a hemocytometer. The HUT78 cells were titrated and incubated with two different constant antibody concentrations, one at 48 pM and the other at 2 nM, in HUT media (RPMI 1640, 10% FBS, 10 mM HEPES, 2 mM L-Glut, 1 mM Sod. Pyr, 0.1 mM NEAA, 50 uM 2-ME) with 0.05% Sodium Azide. For the high [Ab] equilibrium set, HUT78 cells were titrated from 62.5 million per milliliter concentration 1:2 for 10 points in eppendorf tubes and equilibrated with 2 nM antibody in a total volume of 400 μl. For the low [Ab] equilibrium set, HUT78 cells were titrated from 3.89 million per milliliter concentration, 1:2 for 10 points in 50 ml Fulcon tubes and equilibrated with 48 pM antibody in a total volume of 15.5 mL.
# For each equilibrium sample the free [Ab] was detected by running the equilibrium samples through the coated beads followed by a quick wash with the running buffer (1×PBS pH7.4+1% BSA+0.05% Sodium Azide). The secondary detection antibody (goat anti-huIgG (H+L) Alexa 647) was run through the flow cell at 680 ng/ml and 500 μL per run. The KinExA voltage output signal was used in KinExA software to calculate the Kd. […]
# Cells in media were serially diluted and incubated with 48 pM or 2 nM active binding site concentration of antibody in media in the presence of 0.05% NaN3, and allowed to equilibrate. The free mAb left in the supernatant was measured as described above. […]
# [2] = molecular target: T4, human CCR8 with an A27G point mutation (human, UniProt P51685 1-355); assay: flow cytometry, HEK293T transfectants, supernatant 5 ug/mL
# T4 construct: Transiently expressed on HEK293T; also called Human CCR8 [A27G]; humanCCR8[A27G]
# Description: (§1) Transfected cells were used to assess an antibody's binding specificity using flow cytometry on host Human Embryonic Kidney (HEK) 293T cells. Proteins were expressed on HEK 293T cells by transfection using human CCR8 (SEQ ID NO: 21), human CCR8 with an A27G point mutation (SEQ ID NO: 23), murine CCR8 (SEQ ID NO: 24), rat CCR8 (SEQ ID NO: 25), human CCR4 (SEQ ID NO: 26), or control expression vectors, Gibco™ Opti-MEM® media (Gibco), and 293Fectin™ reagent (Invitrogen) according to the manufacturer's instructions. Human T-cell lymphoma (HuT78) cell lines were also used to determine specificity to endogenously expressed CCR8.
# (§2) Transfected HEK293T cells (24 hours after transfection) or HuT78 cells were resuspended in FACS buffer (PBS+2% Fetal Bovine Serum) and added to a 96-well plate. Hybridoma supernatant samples containing control antibodies 433H (BD Biosciences) or L263G8 (BioLegend), Antibody 1 IgG2, or Antibody 2 IgG2 were added at a final concentration of 5.0 μg/mL, cells were resuspended and incubated for 1 hour at 4° C. Plates were washed twice with FACS buffer, centrifuged to pellet the cells, and supernatant was removed and resuspended in FACS buffer to remove unbound antibodies.
# (§3) Alexa Fluor 647 goat anti-human or rat IgG (Fcγ fragment specific) secondary antibodies (Jackson ImmunoResearch) made up in FACS buffer at 5.0 μg/mL were added to each well, and cells were resuspended and incubated for 15 minutes at 4° C. Plates were washed twice with FACS buffer, centrifuged to pellet the cells, and supernatant was removed and resuspended in FACS buffer to remove unbound secondary antibodies. Samples were resuspended in FACS buffer and read on either IntelliCyt® iQue or BD Accuri™ Flow Cytometer with an Intellicyt HyperCyt autosampler.
# [3] = molecular target: T1, murine CCR8; assay: as above
# Description: as §1, §2, §3
# [4] = molecular target: T2, rat CCR8; assay: as above
# Description: as §1, §2, §3
# T3 sequence (P51685 whole entry): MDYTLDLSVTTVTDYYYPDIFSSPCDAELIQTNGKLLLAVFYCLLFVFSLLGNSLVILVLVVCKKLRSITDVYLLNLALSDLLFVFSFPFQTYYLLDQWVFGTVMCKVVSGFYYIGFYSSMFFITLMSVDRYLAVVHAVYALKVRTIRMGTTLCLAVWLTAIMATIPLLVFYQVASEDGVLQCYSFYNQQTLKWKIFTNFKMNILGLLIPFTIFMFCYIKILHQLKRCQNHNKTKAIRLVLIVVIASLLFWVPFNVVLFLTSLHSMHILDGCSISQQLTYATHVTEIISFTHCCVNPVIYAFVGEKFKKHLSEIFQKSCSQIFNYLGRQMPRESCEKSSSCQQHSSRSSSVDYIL
# T4 sequence (P51685 whole entry A27G): as the sequence (P51685 whole entry) above, with A27G counted along it
Binder,Kd [1] [nM],binding by FACS (read-out not named) [2],binding by FACS (read-out not named) [3],binding by FACS (read-out not named) [4]
B1,> 5,24200,3600,11000
B2,0.216,36900,24700,105000
